*1 amine or outer side, *2 acyl side, *3 side chain or, on linkers, in order; H or OH if unused. Where a SMILES comes first, the peptide text is derived from it. [ ]: non-standard residue; d: D form. The star is where a group is joined. Dolaproine = CO[C@@H]([C@@H]1CCCN1)[C@@H](C)C(=O)O; Dil = CC[C@H](C)[C@H](NC)[C@@H](CC(=O)O)OC; PABC = O=C(OCc1ccc(N[*:1])cc1)[*:2]; Doe = c1ccc(C[C@H](N*)c2nccs2)cc1; Glyceroyl(2S) = O=C([C@@H](O)CO)*; Cit = NC(=O)NCCC[C@H](N)C(=O)O; Propanoyl(3-OH) = O=C(CCO)*; dLac = C[C@@H](O)C(=O)O; Lac = C[C@H](O)C(=O)O; Aib = CC(C)(N)C(=O)O; Ms = CS(=O)(=O)*
Test: In Vitro Stability Assay—Mouse Plasma
Type: in vitro ADME
Settings: for DAR: before plasma incubation
[1] = attachment position L11B, % DAR remaining after plasma 3 or 4.5 days

Method: 100-200 ug of ADC were incubated in mouse plasma (provided by Bioreclamation) supplemented with 1×PBS to the final ADC concentration of 0.125 mg/mL. Following incubation for 3-7 days, samples were diluted with an equal volume of 1×PBS, and ADCs were isolated using Trop2 antigen coupled to CNBr-activated Sepharose (GE Healthcare) using standard protocols. Drug-antibody ratios were assessed before and after in vitro exposure using HIC methods and mass spectrometry.
DAR values for conjugates purified after plasma incubation were compared to DAR values prior to plasma treatment.

| SMILES | DAR after plasma incubation for 3 to 4.5 days (attachment position L11B) | Conjugate stability (%) [1] | DAR (attachment position L11B) | DAR (Trop-2 antibody attachment position TG6, HIC or mass spectrometry) | Conjugate stability (%) (attachment position TG6, % DAR remaining after incubation in plasma for 3 or 4.5 days) | DAR after plasma incubation for 3 to 4.5 days (attachment position TG6, plasma species not printed in table (values match mouse plasma, Table 4)) |
| --- | --- | --- | --- | --- | --- | --- |
| CC[C@H](C)[C@@H]([C@@H](CC(=O)N1CCC[C@H]1[C@H](OC)[C@@H](C)C(=O)N[C@@H](Cc1ccccc1)c1nccs1)OC)N(C)C(=O)[C@@H](NC(=O)C(C)(C)NC(=O)OCc1ccc(NC(=O)[C@H](CCCNC(N)=O)NC(=O)[C@@H](NC(=O)[C@H](CCCCN)NC(=O)[C@H](N)CO)C(C)C)cc1)C(C)C [Example 39, D-seryl-L-lysylvalyl-N-{4-[(8S,11S,12R)-11-[(2S)-butan-2-yl]-12-(2-{(2S)-2-[(1R,2R)-1-methoxy-2-methyl-3-oxo-3-{[(1S)-2-phenyl-1-(1,3-thiazol-2-yl)ethyl]amino}propyl]pyrrolidin-1-yl}-2-oxoethyl)-5,5,10-trimethyl-3,6,9-trioxo-8-(propan-2-yl)-2,13-dioxa-4,7,10-triazatetradec-1-yl]phenyl}-N˜5˜-carbamoyl-L-ornithinamide] (H-[dS]KV[Cit][PABC][Aib]V[Dil][Dolaproine]-Doe) | 1.53 | 82% | 1.87 | – | – | – |
| CC[C@H](C)[C@@H]([C@@H](CC(=O)N1CCC[C@H]1[C@H](OC)[C@@H](C)C(=O)N[C@@H](Cc1ccccc1)c1nccs1)OC)N(C)C(=O)[C@@H](NC(=O)C(C)(C)NC(=O)OCc1ccc(NC(=O)[C@H](CCCNC(N)=O)NC(=O)[C@@H](NC(=O)[C@H](CCCCN)NC(=O)[C@H](C)O)C(C)C)cc1)C(C)C [Example 40, N˜2˜-[(2S)-2-hydroxypropanoyl]-L-lysylvalyl-N-{4-[(8S,11S,12R)-11-[(2S)-butan-2-yl]-12-(2-{(2S)-2-[(1R,2R)-1-methoxy-2-methyl-3-oxo-3-{[(1S)-2-phenyl-1-(1,3-thiazol-2-yl)ethyl]amino}propyl]pyrrolidin-1-yl}-2-oxoethyl)-5,5,10-trimethyl-3,6,9-trioxo-8-(propan-2-yl)-2,13-dioxa-4,7,10-triazatetradec-1-yl]phenyl}-N˜5˜-carbamoyl-L-ornithinamide] (H-[Lac]KV[Cit][PABC][Aib]V[Dil][Dolaproine]-Doe) | 1.08 | 58% | 1.87 | – | – | – |
| CC[C@H](C)[C@@H]([C@@H](CC(=O)N1CCC[C@H]1[C@H](OC)[C@@H](C)C(=O)N[C@@H](Cc1ccccc1)c1nccs1)OC)N(C)C(=O)[C@@H](NC(=O)C(C)(C)NC(=O)OCc1ccc(NC(=O)[C@H](CCCNC(N)=O)NC(=O)[C@@H](NC(=O)[C@H](CCCCN)NC(=O)[C@@H](C)O)C(C)C)cc1)C(C)C [Example 41, N˜2˜-[(2R)-2-hydroxypropanoyl]-L-lysylvalyl-N-{4-[(8S,11S,12R)-11-[(2S)-butan-2-yl]-12-(2-{(2S)-2-[(1R,2R)-1-methoxy-2-methyl-3-oxo-3-{[(1S)-2-phenyl-1-(1,3-thiazol-2-yl)ethyl]amino}propyl]pyrrolidin-1-yl}-2-oxoethyl)-5,5,10-trimethyl-3,6,9-trioxo-8-(propan-2-yl)-2,13-dioxa-4,7,10-triazatetradec-1-yl]phenyl}-N˜5˜-carbamoyl-L-ornithinamide] (H-[dLac]KV[Cit][PABC][Aib]V[Dil][Dolaproine]-Doe) | 0.91 | 49% | 1.86 | – | – | – |
| CC[C@H](C)[C@@H]([C@@H](CC(=O)N1CCC[C@H]1[C@H](OC)[C@@H](C)C(=O)N[C@@H](Cc1ccccc1)c1nccs1)OC)N(C)C(=O)[C@@H](NC(=O)C(C)(C)NC(=O)OCc1ccc(NC(=O)[C@H](CCCNC(N)=O)NC(=O)[C@@H](NC(=O)[C@H](CCCCN)NC(=O)[C@@H](O)CO)C(C)C)cc1)C(C)C [Example 42, N˜2˜-[(2S)-2,3-dihydroxypropanoyl]-L-lysylvalyl-N-{4-[(8S,11S,12R)-11-[(2S)-butan-2-yl]-12-(2-{(2S)-2-[(1R,2R)-1-methoxy-2-methyl-3-oxo-3-{[(1S)-2-phenyl-1-(1,3-thiazol-2-yl)ethyl]amino}propyl]pyrrolidin-1-yl}-2-oxoethyl)-5,5,10-trimethyl-3,6,9-trioxo-8-(propan-2-yl)-2,13-dioxa-4,7,10-triazatetradec-1-yl]phenyl}-N˜5˜-carbamoyl-L-ornithinamide] ({Glyceroyl(2S)}-KV[Cit][PABC][Aib]V[Dil][Dolaproine]-Doe) | 1.60 | 85% | 1.87 | – | – | – |
| CC[C@H](C)[C@@H]([C@@H](CC(=O)N1CCC[C@H]1[C@H](OC)[C@@H](C)C(=O)N[C@@H](Cc1ccccc1)c1nccs1)OC)N(C)C(=O)[C@@H](NC(=O)C(C)(C)NC(=O)OCc1ccc(NC(=O)[C@H](CCCNC(N)=O)NC(=O)[C@@H](NC(=O)[C@H](CCCCN)NC(=O)CCO)C(C)C)cc1)C(C)C [Example 43, N˜2˜-(3-hydroxypropanoyl)-L-lysylvalyl-N-{4-[(8S,11S,12R)-11-[(2S)-butan-2-yl]-12-(2-{(2S)-2-[(1R,2R)-1-methoxy-2-methyl-3-oxo-3-{[(1S)-2-phenyl-1-(1,3-thiazol-2-yl)ethyl]amino}propyl]pyrrolidin-1-yl}-2-oxoethyl)-5,5,10-trimethyl-3,6,9-trioxo-8-(propan-2-yl)-2,13-dioxa-4,7,10-triazatetradec-1-yl]phenyl}-N˜5˜-carbamoyl-L-ornithinamide] ({Propanoyl(3-OH)}-KV[Cit][PABC][Aib]V[Dil][Dolaproine]-Doe) | 1.23 | 76% | 1.62 | – | – | – |
| CC[C@H](C)[C@@H]([C@@H](CC(=O)N1CCC[C@H]1[C@H](OC)[C@@H](C)C(=O)N[C@@H](Cc1ccccc1)c1nccs1)OC)N(C)C(=O)[C@@H](NC(=O)C(C)(C)NC(=O)OCc1ccc(NC(=O)[C@H](CCCNC(N)=O)NC(=O)[C@@H](NC(=O)[C@H](CCCCN)NS(C)(=O)=O)C(C)C)cc1)C(C)C [Example 44, N˜2˜-(methylsulfonyl)lysyl-L-valyl-N-{4-[(8S,11S,12R)-11-[(2S)-butan-2-yl]-12-(2-{(2S)-2-[(1R,2R)-1-methoxy-2-methyl-3-oxo-3-{[(1S)-2-phenyl-1-(1,3-thiazol-2-yl)ethyl]amino}propyl]pyrrolidin-1-yl}-2-oxoethyl)-5,5,10-trimethyl-3,6,9-trioxo-8-(propan-2-yl)-2,13-dioxa-4,7,10-triazatetradec-1-yl]phenyl}-N˜5˜-carbamoylornithinamide] (Ms-KV[Cit][PABC][Aib]V[Dil][Dolaproine]-Doe) | 0.25 | 17% | 1.50 | 1.74 | 47% | 0.82 |
